The labels stand for the following.
B1: Cytochrome c', P00149 (parent)
chain: MKLRIATIAGLVVLGSGFAVAQTDVIAQRKAILKQMGEATKPIAAMLKGEAKFDQAVVQKSLAAIADDSKKLPALFPADSKTGGDTAALPKIWEDKAKFDDLFAKLAAAATAAQGTIKDEASLKANIGGVLGNCKSCHDDFRAKKS

Variants of B1 are the subject of the series. To be noted: Rhodopseudomonas palustris (strain ATCC BAA-98 / CGA009); pH 6.5; 25 °C; GdnHCl; CD; MES 20 mM; NaCl 40 mM; structure 1A7V; whole UniProt chain shown.

Regarding A112H, the denaturant m value is 5.75 kcal/mol/M, the “denaturant midpoint (higher = more stable)” value (shortened to “denaturant midpoint”) is 1.23 M and the unfolding free energy came out at 7.07 kcal/mol.

As for D79H, the denaturant m value worked out at 4.8 kcal/mol/M, the “denaturant midpoint” value was 1.4 M and the unfolding free energy amounted to 6.72 kcal/mol.

Consider K118H, for which the denaturant m value is 5.28 kcal/mol/M, the “denaturant midpoint” value amounted to 1.29 M and the unfolding free energy is 6.8 kcal/mol.

Regarding K52H, the denaturant m value was determined as 5.04 kcal/mol/M, the “denaturant midpoint” value worked out at 1.47 M and the unfolding free energy was determined as 7.41 kcal/mol.

With K105H, the denaturant m value was determined as 5.32 kcal/mol/M, the “denaturant midpoint” value was 1.11 M and the unfolding free energy stood at 5.89 kcal/mol.

On to K70H, for which the denaturant m value was 4.66 kcal/mol/M, the “denaturant midpoint” value amounted to 1.45 M and the unfolding free energy amounted to 6.75 kcal/mol.

Consider A87H, for which the denaturant m value turned out to be 4.88 kcal/mol/M, the “denaturant midpoint” value turned out to be 1.39 M and the unfolding free energy came out at 6.79 kcal/mol.

On to A125H, for which the denaturant m value stood at 5.59 kcal/mol/M, the “denaturant midpoint” value is 1.09 M and the unfolding free energy came to 6.08 kcal/mol.

For D24H, the denaturant m value worked out at 5.08 kcal/mol/M, the “denaturant midpoint” value amounted to 1.46 M and the unfolding free energy was 7.41 kcal/mol.

Regarding K34H, the denaturant m value stood at 4.91 kcal/mol/M, the “denaturant midpoint” value is 1.66 M and the unfolding free energy turned out to be 8.17 kcal/mol.

As to E94H, the denaturant m value is 5.08 kcal/mol/M, the “denaturant midpoint” value was 1.13 M and the unfolding free energy came to 5.76 kcal/mol.

These data come from FireProtDB (doi:10.1016/j.jmb.2009.07.074).
